In article doi:10.1101/2023.06.13.544671:

Molecular target: RSC chromatin remodeling complex with Sth1-3xFlag-HaloTag (S. cerevisiae) (UniProt P32597)
Experiment: two-colour single-molecule colocalisation on DNA (optical tweezers with confocal microscopy); RSC-JFX554 with ISW2-JFX650, or RSC-JFX554 with RSC-JFX650, diffusing on naked lambda DNA stretched to 5 pN; 10 mM Tris pH 7.4, 50 mM KCl, 3 mM MgCl2, 0.1 mg/ml BSA, Trolox; colocalisation threshold 0.31 um (RSC-RSC) and 0.29 um (RSC-ISW2); single exponential fits of dwell times

Row | half-life of long colocalisation with co-diffusion, on DNA [s] | Substance
1 | 0.7 | RSC chromatin remodeling complex with Sth1-3xFlag-HaloTag (from UniProt P32597 1-1359)
2 | 0.68 | ISW2 chromatin remodeling complex with Isw2-3xFlag-HaloTag (from UniProt Q08773 1-1120)
